Experimental data taken from paper PMC12339391, “PEX39 facilitates the peroxisomal import of PTS2-containing proteins” (Nature Cell Biology, 2025).
Where no end group is shown, it is not given here.

T1: FLAG-PEX7 (recombinant N-terminally FLAG-tagged human PEX7) (human, UniProt O00628 1-323)
T1 construct: PEX7, human; also called recombinant human FLAG-tagged PEX7; source: Hi5 insect cells (baculovirus, pACEBac1), purified (anti-FLAG M2 beads, FLAG peptide elution); not shown: FLAG, N-terminal, kept
T1 sequence (looked up): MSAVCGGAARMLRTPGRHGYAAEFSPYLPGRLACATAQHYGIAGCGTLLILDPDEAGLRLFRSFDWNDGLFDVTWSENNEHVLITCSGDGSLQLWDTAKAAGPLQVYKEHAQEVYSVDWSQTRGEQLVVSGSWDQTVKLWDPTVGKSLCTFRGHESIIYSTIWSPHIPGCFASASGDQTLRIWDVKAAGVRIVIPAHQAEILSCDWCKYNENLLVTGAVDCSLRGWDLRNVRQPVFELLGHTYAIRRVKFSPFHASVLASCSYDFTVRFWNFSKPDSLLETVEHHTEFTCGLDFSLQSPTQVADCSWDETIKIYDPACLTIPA


Legend:
[1] = biological target: T1, FLAG-PEX7 (recombinant N-terminally …); assay: SEC; Superdex 200 Increase 3.2/300, 50 mM Tris-HCl pH 7.5, 150 mM NaCl, 1 mM EDTA; proteins (10–15 µg) alone or mixed, 15 min at 23 °C before injection; fractions on SDS-PAGE; settings: both partners purified
[2] = biological target: T1, FLAG-PEX7 (recombinant N-terminally …); assay: native gel or EMSA; only recombinant proteins, two at a time (approximately 5 µg each of FLAG-PEX7, GST-HsPEX39, His-PEX5(1–324), His-PHYH); Coomassie staining; excised bands immunoblotted; settings: both partners purified

binding result [1]	binding result [2]	Binder
binds		MASQPPPPPKPWETRRIPGAGPGPGPGPTFQSADLG (domain or fragment, human, UniProt Q92968 1-36, looked up, also: fused to Sumo1 with a hexa-histidine tag, PEX13, human, residues 1–36; also called NtPEX13.Sumo.His; PEX13 N terminus; source: recombinant (plasmid pET23a-NtPEX13.Sumo.His); not shown: His6, C-terminal, kept) [NtPEX13 (HsPEX13 residues 1–36 fused to Sumo1 with a hexa-histidine tag)]
	binds	GST-HsPEX39 (N-terminally GST-tagged human PEX39, C6ORF226) (natural protein, UniProt Q5I0X4 1-101, looked up, HsPEX39 (C6ORF226), human; plasmid pGEX-HsPEX39 (pGEX-6-P1); 101 residues by the printed limits of the 48–101 variant; also called recombinant HsPEX39; wild-type (WT) HsPEX39; source: E. coli BL21(DE3), purified (Glutathione Sepharose 4B); not shown: GST, N-terminal, kept) MERPRSPQCSAPASASASVTLAQLLQLVQQGQELPGLEKRHIAAIHGEPTASRLPRRPKPWEAAALAESLPPPTLRIGTAPAEPGLVEAATAPSSWHTVGP
